This is an account of results in patent US20260258115A1 (MAPP BIOPHARMACEUTICAL, published 2026).

By Kd is commonly meant the constant that tells how readily two partners part at equilibrium.

Numbering of substitutions follows the chain as printed.

For test [1], the target named is RSV prefusion F (preF), subtype B (respiratory syncytial virus, subtype B). The test is described as follows: BLI, IgG.
Test [2] has as its target RSV prefusion F (preF), subtype A (respiratory syncytial virus, subtype A, UniProt P03420 26-513). In words: BLI, IgG. On the technique in general: BLI is a label-free optical method that tracks binding on a fibre tip over time.
Test [3] has as its target T1, RSV postfusion F (postF), subtype A (respiratory syncytial virus, subtype A, UniProt P03420 26-513).
T1 construct: also called F ΔFP; Postfusion subtype A
In words: BLI, IgG.

The target in test [4] is T2, RSV postfusion F (postF), subtype B (respiratory syncytial virus, subtype B).
T2 construct: also called F ΔFP; Postfusion subtype B
The test is described as follows: BLI, IgG.

For test [5], the target named is RSV F on RSV subtype A virus (RSV-A2) (Respiratory Syncytial Virus, subtype A, …, UniProt P03420 26-574). In words: cell-based or functional assay.

B1: ADI-21037 (antibody, V domains shown)
VH: QVQLVQSGGGVVQPGRSLRLSCAASGFPFSSYAMHWVRQAPGKGLEWVAVIWYPGGEKYSADSVTGRFTISRDNSKNTLYLQMSSLRVEDTAVYYCARRSVGAFDYWGQGTLVTVSS
VL: DIQMTQSPLSLPVTPGEPASISCRSSQSLLNSNGYNYLDWYLQKPGQSPQVLIYLGSHRASGVPDRFSGSGSGTDFTLRISRVEAEDVGVYYCMQAVQTPYTFGQGTKVEIK
B1: the Kd in test [1] stood at 4.81 nM; in test [2], 1.95 nM; in test [3], 0.248 nM; in test [4] it was 3.17 nM.

B2: ADI-21055 (antibody, V domains shown)
VH: EVQLVESGGGVVQPGRSLRLSCVGSGFTFSRYGMQWVRQAPGKGLEWAAVIWNDGSNEHYADSVKGRFTISRDNSKNTMYLQMNSLRAEDTALYYCAREGEYSSSWSHWSYLDLWGRGTLVTVSS
VL: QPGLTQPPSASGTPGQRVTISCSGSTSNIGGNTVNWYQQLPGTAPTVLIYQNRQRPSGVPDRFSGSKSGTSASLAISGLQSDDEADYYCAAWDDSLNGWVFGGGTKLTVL
With B2, the Kd in test [1] worked out at 2.98 nM; in test [2] it was 1.1 nM; in test [3], 0.185 nM; in test [4] it was 4.35 nM.

B3: ADI-36674 (antibody, V domains shown)
VH: EVQLLESGGGLVKPGGSLRLSCAASGFKFRSYSMNWVRQAPGKGLEWVSSISSSSSYVDYAGSLKGRFTISRDNAENSLYLQMNSLRAEDTAMYYCARAGSVPVAGTYNDYWGQGTLVTVSS
VL: QSVLTQPPSVSGAPGQRVTISCTGSSSNIGAGYDVHWYQHLPGTAPKLLIHGNNNRPAGVPDRFSGSKSGTSASLVITGLQADDEADYYCQSYDRSLSVLFGGGTKVTVL
As for B3, in test [5], the “Neutralization - RSV A2 IC50 (pM)” value is 190 pM and the “neut IC50 (ug/ml) subtype A (wright)” value was determined as 0.014 µg/mL.

B4: ADI-21039 (antibody, V domains shown)
VH: EVQLVQSGAEVKKPGASVKVSCKASGYTFISYYIHWVRQAPGQGLEWMGVINPSGGITDYAPKFQGRVSMTRDTSTRTVYLELSSLRSDDTAVYYCARDLCITTSCPRYYDYAWRSYRSEGYFDSWGQGTLVTVSS
VL: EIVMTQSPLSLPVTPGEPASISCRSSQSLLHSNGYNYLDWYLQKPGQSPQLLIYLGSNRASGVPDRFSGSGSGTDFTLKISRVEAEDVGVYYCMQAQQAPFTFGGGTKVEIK
As for B4, the Kd in test [1] stood at 12.7 nM; in test [2], 1.71 nM; in test [3], 0.24 nM; in test [4], 6.31 nM.

B5: ADI-21061 (antibody, V domains shown)
VH: QVQLVQSGAEVKKPGSSVKVSCKASGGTFSNYPISWVRQAPGHGLEWMGRVVPTVGLANYAQNLQGRVTITADTSTNTVYMELRSLRSEDTGLYYCARRAVVDTYAFDIWGQGTLVTVSS
VL: QSALIQPASVSGFPGQSITISCTGASSDVGGYNFVSWYQQHPGKAPKLIIYEVTKRPSGVSNRFSGSESGNTASLTISGLQAEDEADYYCSSFRYTSSIVYVFGSGTKVTVL
For the molecule B5, the Kd in test [1] was 2.76 nM; in test [2], 1.1 nM; in test [3] it was 0.142 nM; in test [4], 2.48 nM.

B6: ADI-41232 (antibody, V domains shown)
VH: QVQLVQSGAEVKKPGASVKVSCKASGYTFTHYGISWVRQAPGQGLEWMAWISAYNGNTNYAQKLQDRVTVTTDTSTSTAYMELRSLRSDDTALYYCARDSMGGTTLFDYWGQGTLVTVSS
VL: DIVLTQTPLSLPVTLGQPASISCRSSQSLVYSDGNTYLNWFQQRPGQSPRRLIYKVSNRDSGVPDRFTGSGSGTDFTLKISRVEAEDVGVYYCMQGTHWPPMYTFGQGTKLEIK
As for B6, in test [5], the “Neutralization - RSV A2 IC50 (pM)” value turned out to be 104 pM and the “neut IC50 (ug/ml) subtype A (wright)” value came out at 0.025 µg/mL.

B7: ADI-21054 (antibody, V domains shown)
VH: QVQLVESGGGVVQPGRSLRLSCAASGFSFSNYGMHWVRQAPGKGLEWVVGISFDGSYIFHGGSVTGRFNISRDNSKNTLYLQVNSVRAEDTAVYYCARDPQYYDDWSGYSGLLHYYLYMDVWGKGTTVTVSS
VL: DIQLTQSPSTLSASVGDRVTITCRASQSIGTSLAWYQQIPGKAPKLLIYRASSLESGVPSRFSGGGSGTQFTLTISSLQPDDFATYYCQQYNNYSPTFGQGTKLEIK
As to B7, the Kd in test [1] came out at 0.139 nM; in test [2], 0.185 nM; in test [3], 0.372 nM; in test [4] it was 0.306 nM.

B8: ADI-36670 (antibody, V domains shown)
VH: QVQLVQSGAEVKKPGSSVKVSCKASGGTFSTYTINWVRQAPGQGLEWMGRITPSLGVPLSAQKFQGRITISADKSTTTAYMELSSLGSEDTAVYYCASLNYYDTTDYYLGYSDSWGQGTLVTVSS
VL: DIVLTQTPATLSVSPGERATLSCRASHSVSNNLAWYQQKPGQAPRLLIYSASTRATGIPARFSGRGSGTEFTLTISSLQPEDFAVYYCQQYNNWPPEYTFGQGTKVDIK
For the molecule B8, in test [5], the “Neutralization - RSV A2 IC50 (pM)” value came to 141 pM and the “neut IC50 (ug/ml) subtype A (wright)” value is 0.008 µg/mL.

B9: ADI-21043 (antibody, V domains shown)
VH: QVQLVQSGAEVKKPGASVKVSCKASGYTFTSYGITWVRQAPGQGLEWMGWISTYNGKTNYAQKFKGRVTMTTDTSTSTAYVELTSLRSDDTAVYYCAREFPTRIVDSFYMDVWGKGTTVTVSS
VL: SYELTQPPSVSVAPGQTARITCGGSNIGSETVHWYQQKPGQAPVLVVYGDSDRPSGIPERFSGSNSGNTATLTISRVEAGDEADYYCQVWDSRSDDFHVFGSGTKLTVL
B9: the Kd in test [1] came to 0.154 nM; in test [2], 0.111 nM; in test [3], 1.65 nM; in test [4], 1.93 nM.

B10: ADI-21022 (antibody, V domains shown)
VH: EVQLVETGPGLVKPSETLSLTCSVSGGSISSYYWSWLRQPPGKGLEWIGYIYNSGRTNYNPSLRSRVTISVDTSQNQFSLRLGSVTAADTAVYYCARGGAGDDLLRGSYRYLNFWGQGTLVTVSS
VL: QSVLTQPPSVSVAPGQTARITCGGNNIGSKSVHWYQQKPGQAPVLVVYDDTERPSGIPERISGSNSGNTATLTISRVEAGDEADYYCQVWDSSSDHPDLLFGGGTKLTVL
On to B10, for which the equilibrium dissociation constant (Kd) in test [1] was 17.4 nM; in test [3], 0.256 nM; in test [4] it was 0.357 nM. The binding result in test [2] is “no binding”.

B11: ADI-41222 (antibody, V domains shown)
VH: QVTLKESGGGVVQPGRSQRLSCTASGFNFHNYAMHWVRQAPGKGLEWVAVISYDGSNKNFADSVKGRFTISRDNSKNTLNLQMNNLRAEDTAVYYCVRDIVRGSPLFDYWGQGTLVTVSS
VL: QPVLTQPPSLSVAPGQTAWITCGGNNIGSKIVHWYQQKPGQAPVVVVYDDDDRPSGIPERFSGSNSGNTATLTIRRVEVGDEADYYCQVWDRSSDNYVFGTGTKVSVL
As to B11, in test [5], the “Neutralization - RSV A2 IC50 (pM)” value turned out to be 39.9 pM and the “neut IC50 (ug/ml) subtype A (wright)” value is 0.016 µg/mL.

B12: ADI-21046 (antibody, V domains shown)
VH: EVQLVESGAEAKKPGESLRISCTVSGYSFSKYWVGWVRQTPGKGLEWMGIIDPTDSDTRYSPSFQGQVTISVDNSINTAYLQWSSLKASDTAIYYCARRGQAKCVGNCPRDFMDVWGKGTTVTVSS
VL: SYVLTQPPSVSGAPGQRVTISCAGSSSNIGAGYEVHWYQQLPGTAPKLLIYANRNRPSGVPDRFSGSRSGTSASLAISGLQAEDEADYYCQSYDNNLSGSWVFGGGTKLTVL
B12: the Kd in test [1] was 0.694 nM; in test [2], 1.66 nM; in test [3] it was 0.187 nM; in test [4] it was 0.224 nM.

B13: ADI-41249 (antibody, V domains shown)
VH: QVQLVQSGAEVKKPGESLKISCQVSRDTSTTYWIGWVRQMPGKGLEWMGIIFPGDSDTRYSPSFQGQVTISADKSIMTAYLQLTSLKASDTAMYYCATQALRGAFDIWGQGTMVTVSS
VL: DIRLTQSPSSLSASVGDRVTITCQASQDISNYLNWYQQKPGKAPKLLIYDASYLETGVPSRFSGSGSGTDFTFTISSLQPEDFATYYCQQYDDLLFTFGPGTKLEIK
For the molecule B13, in test [5], the “Neutralization - RSV A2 IC50 (pM)” value was 51.7 pM and the “neut IC50 (ug/ml) subtype A (wright)” value was determined as 0.006 µg/mL.

B14: ADI-21047 (antibody, V domains shown)
VH: QVQLQQWGAGLLKPSETLSLTCAVYGGSFSGKYWSWIRQPPGKGLEWIGEFNHDGTTYYNPSLKSRVTISADTPKNQFSLTLHSVTAADTAVYYCARLTILSDWGQGTLVTVSS
VL: B13 VL with L4M, N34H, Y53N, S76H, F83L, D92Y, L95P, F96R, P100Q
For B14, the Kd in test [1] is 0.756 nM; in test [2] it was 2.11 nM; in test [3], 0.29 nM; in test [4] it was 0.262 nM.

B15: ADI-21042 (antibody, V domains shown)
VH: EVQLVESGPRLVKPSQTLSLTCNVSGVPVNTGGYYWSWIRRHPIKGLEWIGYIYYSGSTHYNPSLRGRATMSVDTSKNQFSLRLSSVTAADTAVYYCAKDTITVLRGVAKKGVFDPWGQGILVTVSS
VL: DIQMTQSPSTLSASVGDRVIITCRASQSISSWLAWYQYKPGKAPNLLIYKATTLDSGVPSRFSGSGSGTEFTLTISSLQPDDFATYYCQQYDSYPTFGQGTKVEIK
notes: also called Ab 290
As to B15, the Kd was found to be 1.18 nM in test [1], 2.96 nM in test [2], 0.287 nM in test [3] and 0.398 nM in test [4].

B16: ADI-21062 (antibody, V domains shown)
VH: EVQLLESGGGLVKPGGSLRLSCAASGFTFSDYDMIWVRQAPGKGLEWVSSISRGSDYIYYADSLKGRFTISRDNARNSVTLQMNSLRAGDTALYFCARAELLDSGGYYLYYFDHWGQGTLVTVSS
VL: DIRMTQSPSSLSASVGDRVTITCRASQIIASYVNWYQKKPGKAPKVLIYAASRLQNGVPSRFSGSGSGTEFTLTISSLQPEDFATYYCQQSYSTSFTFGQGTKVDIK
notes: also called Ab 310
B16: the Kd in test [1] worked out at 0.827 nM; in test [2], 1.24 nM; in test [3] it was 0.236 nM; in test [4] it was 0.417 nM.

B17: ADI-21026 (antibody, V domains shown)
VH: QVQLVQSGPGLVKPSQTLSLTCTVSGVSISSGGFYWSWIRQHPGKGLEWIGHIYYSRSTYYNPSLKSRVTMSLNMSKNQFSLRLSSVTAADTAVYYCARERREWLHGELDYWGQGTTVTVSS
VL: DIQMTQSPDSLAVSLGEGATINCKSSQSVLDSSKNKNYLAWYQQRPGQPPKLLISWASTRESGVPDRFSGSGSGTDFTLTISSLQAEDVAVYSCQQYFSPPATFGQGTKLEIK
For the molecule B17, the Kd in test [1] amounted to 3.99 nM; in test [2], 6.35 nM; in test [3] it was 0.945 nM; in test [4], 1.43 nM.
